Measurements reported in patent US20140348832A1 (Sanofi, published 2014).

Assays:
[1] = target: mouse cytotoxic T lymphocyte associated antigen-4 (CTLA-4) on activated T cells (mouse, UniProt P09793 36-223); assay: cell-based or functional assay
[2] = target: MHCII (pMHCII) on mouse antigen presenting cells; assay: cell-based or functional assay

- EC50 of BsB for inducing Tregs in vitro [2]: ~100 nM
- potency of BsB at inducing the production of Tregs (EC50) [2]: > 100 nM
B1: BsB, bispecific fusion protein CD80wa-LAG-3-Fc (mouse CD80w88a(aa1-235)-G9-Lag-3(aa25-260)-IgG2a(aa241-474)) (Fc fusion)
chain: VDEQLSKSVKDKVLLPCRYNSPHEDESEDRIYWQKHDKVVLSVIAGKLKVAPEYKNRTLYDNTTYSLIILGLVLSDRGTYSCVVQKKERGTYEVKHLALVKLSIKADFSTPNITESGNPSADTKRITCFASGGFPKPRFSWLENGRELPGINTTISQDPESELYTISSQLDFNTTRNHTIKCLIKYGDAHVSEDFTWGGGGGGGGGGPGKELPVVWAQEGAPVHLPCSLKSPNLDPNFLRRGGVIWQHQPDSGQPTPIPALDLHQGMPSPRQPAPGRYTVLSVAPGGLRSGRQPLHPHVQLEERGLQRGDFSLWLRPALRTDAGEYHATVRLPNRALSCSLRLRVGQASMIASPSGVLKLSDWVLLNCSFSRPDRPVSVHWFQGQNRVPVYNSPRHFLAETFLLLPQVSPLDSGTWGCVLTYRDGFNVSITYNLKVLGLEPVAPRGPTIKPCPPCKCPAPNLLGGPSVFIFPPKIKDVLMISLSPMVTCVVVDVSEDDPDVQISWFVNNVEVLTAQTQTHREDYNSTLRVVSALPIQHQDWMSGKEFKCKVNNKALPAPIERTISKPKGSVRAPQVYVLPPPEEEMTKKQVTLTCMVTDFMPEDIYVEWTNNGKTELNYKNTEPVLDSDGSYFMYSKLRVEKKNWVERNSYSCSVVHEGLHNHHTTKSFSRTPGK
- EC50 of BsB for inducing Tregs in vitro [1]: ~100 nM
- potency of BsB at inducing the production of Tregs (EC50) [1]: > 100 nM
